Experiment [1] concerns the target S. cerevisiae Nup57 of the short scNup49-Nup57-Nsp1 complex (S. cerevisiae) (UniProt P48837). Kind of experiment: SEC.
For experiment [2] the target is unchanged. Description: AUC.
The target of experiment [3] is S. cerevisiae Nsp1 of the short scNup49-Nup57-Nsp1 complex (S. cerevisiae) (UniProt P14907). Kind of experiment: SEC.
Experiment [4] has the same target. Kind of experiment: AUC.

This is an account of results in PMC4004597.

Chain of S. cerevisiae Nup57 of the short scNup49-Nup57-Nsp1 complex (S. cerevisiae) (P48837 whole entry, one chain of several): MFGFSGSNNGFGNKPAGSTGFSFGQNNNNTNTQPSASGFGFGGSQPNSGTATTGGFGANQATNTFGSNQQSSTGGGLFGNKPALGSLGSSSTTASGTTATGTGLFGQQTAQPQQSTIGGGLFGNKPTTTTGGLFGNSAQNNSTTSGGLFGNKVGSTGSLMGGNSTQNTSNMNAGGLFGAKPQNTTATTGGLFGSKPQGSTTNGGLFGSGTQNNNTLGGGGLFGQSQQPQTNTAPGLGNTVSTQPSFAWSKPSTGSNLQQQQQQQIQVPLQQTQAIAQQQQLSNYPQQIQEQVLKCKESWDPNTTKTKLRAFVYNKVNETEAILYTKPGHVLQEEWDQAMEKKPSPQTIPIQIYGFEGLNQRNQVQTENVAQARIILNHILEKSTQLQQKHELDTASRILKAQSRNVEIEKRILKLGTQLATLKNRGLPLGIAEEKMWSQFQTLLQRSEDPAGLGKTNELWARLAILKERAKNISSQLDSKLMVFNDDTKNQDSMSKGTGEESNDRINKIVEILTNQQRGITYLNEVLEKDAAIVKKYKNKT

The term stoichiometry N denotes the number of molecules, sites or subunits per partner or assembly. Turning to “S. cerevisiae Nup49 of the short scNup49-Nup57-Nsp1 complex (from UniProt Q02199 1-472) (domain or fragment)”, the stoichiometry N in experiment [1] and in experiment [2] was 1 in each case.

With “S. cerevisiae Nup57 of the short scNup49-Nup57-Nsp1 complex (from UniProt P48837 1-541) (domain or fragment)”, the stoichiometry N in experiment [3] and in experiment [4] was 1 throughout.
